The supplement of paper PMC9112550, “Optimization of the antimicrobial peptide Bac7 by deep mutational scanning” (BMC Biology, 2022)

Tested on: Escherichia coli TOP10
Assay: shrunken log2 fold change of peptide-encoding DNA abundance (4.5 h post-induction vs induction); higher = less antimicrobial activity (less host growth inhibition)
Conditions: time post-induction: 4.5 h; library: site-saturation at positions 5, 18, 19, 20
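Note: peptides expressed intracellularly from a pBAD plasmid library in pooled LB shake-flask culture, induced with 0.3% L-arabinose, DNA abundance read by NGS, three biological replicates, DESeq2 with apeglm shrinkage.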

Row | Sequence | shrunken log2 fold change
1 | RRIRFRPPRLPRPRPRPMTIPRP | -0.182
2 | RRIRFRPPRLPRPRPRPMVIPRP | 0.023
3 | RRIRFRPPRLPRPRPRPMVYPRP | -0.389
4 | RRIRFRPPRLPRPRPRPMWFPRP | -0.0145
5 | RRIRFRPPRLPRPRPRPNAEPRP | 0.67
6 | RRIRFRPPRLPRPRPRPNATPRP | 0.0167
7 | RRIRFRPPRLPRPRPRPNDRPRP | -0.108
8 | RRIRFRPPRLPRPRPRPNEDPRP | 0.144
9 | RRIRFRPPRLPRPRPRPNEIPRP | 0.232
10 | RRIRFRPPRLPRPRPRPNGSPRP | 0.0396
11 | RRIRFRPPRLPRPRPRPNGTPRP | -0.419
12 | RRIRFRPPRLPRPRPRPNIPPRP | -0.67
13 | RRIRFRPPRLPRPRPRPNIYPRP | -0.116
14 | RRIRFRPPRLPRPRPRPNKAPRP | -0.268
15 | RRIRFRPPRLPRPRPRPNKPPRP | -0.00705
16 | RRIRFRPPRLPRPRPRPNLAPRP | -0.0885
17 | RRIRFRPPRLPRPRPRPNLKPRP | -0.553
18 | RRIRFRPPRLPRPRPRPNLPPRP | -0.454
19 | RRIRFRPPRLPRPRPRPNMAPRP | -0.245
20 | RRIRFRPPRLPRPRPRPNMHPRP | -0.377
21 | RRIRFRPPRLPRPRPRPNMNPRP | -0.953
22 | RRIRFRPPRLPRPRPRPNMQPRP | -0.846
23 | RRIRFRPPRLPRPRPRPNNCPRP | -0.167
24 | RRIRFRPPRLPRPRPRPNQLPRP | -1.2
25 | RRIRFRPPRLPRPRPRPNQSPRP | -0.32

Row | Sequence | shrunken log2 fold change
26 | RRIRFRPPRLPRPRPRPNRMPRP | 0.0762
27 | RRIRFRPPRLPRPRPRPNRSPRP | -0.299
28 | RRIRFRPPRLPRPRPRPNRTPRP | -0.0619
29 | RRIRFRPPRLPRPRPRPNSRPRP | -0.0396
30 | RRIRFRPPRLPRPRPRPNTCPRP | -0.483
31 | RRIRFRPPRLPRPRPRPNVHPRP | -0.339
32 | RRIRFRPPRLPRPRPRPPCHPRP | -0.0556
33 | RRIRFRPPRLPRPRPRPPDNPRP | -0.115
34 | RRIRFRPPRLPRPRPRPPDTPRP | 0.254
35 | RRIRFRPPRLPRPRPRPPEFPRP | 0.12
36 | RRIRFRPPRLPRPRPRPPEIPRP | -0.204
37 | RRIRFRPPRLPRPRPRPPFDPRP | 0.188
38 | RRIRFRPPRLPRPRPRPPFKPRP | -0.183
39 | RRIRFRPPRLPRPRPRPPFTPRP | 0.0652
40 | RRIRFRPPRLPRPRPRPPFVPRP | -0.0145
41 | RRIRFRPPRLPRPRPRPPGAPRP | 0.847
42 | RRIRFRPPRLPRPRPRPPGRPRP | 0.637
43 | RRIRFRPPRLPRPRPRPPHKPRP | -0.027
44 | RRIRFRPPRLPRPRPRPPHTPRP | 0.126
45 | RRIRFRPPRLPRPRPRPPITPRP | -0.389
46 | RRIRFRPPRLPRPRPRPPLDPRP | 0.461
47 | RRIRFRPPRLPRPRPRPPLSPRP | 0.133
48 | RRIRFRPPRLPRPRPRPPMDPRP | -0.155
49 | RRIRFRPPRLPRPRPRPPMPPRP | 0.568
50 | RRIRFRPPRLPRPRPRPPMQPRP | 0.115

Row | Sequence | shrunken log2 fold change
51 | RRIRFRPPRLPRPRPRPPMSPRP | 0.0816
52 | RRIRFRPPRLPRPRPRPPNAPRP | 0.353
53 | RRIRFRPPRLPRPRPRPPNCPRP | -0.159
54 | RRIRFRPPRLPRPRPRPPNHPRP | -0.0407
55 | RRIRFRPPRLPRPRPRPPNPPRP | 0.412
56 | RRIRFRPPRLPRPRPRPPNVPRP | 0.0696
57 | RRIRFRPPRLPRPRPRPPPAPRP | 1.49
58 | RRIRFRPPRLPRPRPRPPPQPRP | 1.33
59 | RRIRFRPPRLPRPRPRPPRDPRP | 1
60 | RRIRFRPPRLPRPRPRPPRFPRP | 0.454
61 | RRIRFRPPRLPRPRPRPPRKPRP | 0.827
62 | RRIRFRPPRLPRPRPRPPRQPRP | 0.828
63 | RRIRFRPPRLPRPRPRPPRRPRP | 0.826
64 | RRIRFRPPRLPRPRPRPPSFPRP | -0.259
65 | RRIRFRPPRLPRPRPRPPSKPRP | -0.148
66 | RRIRFRPPRLPRPRPRPPSVPRP | 0.08
67 | RRIRFRPPRLPRPRPRPPWEPRP | 0.124
68 | RRIRFRPPRLPRPRPRPPYFPRP | 0.0621
69 | RRIRFRPPRLPRPRPRPPYIPRP | -0.282
70 | RRIRFRPPRLPRPRPRPPYWPRP | 0.191
71 | RRIRFRPPRLPRPRPRPQARPRP | 0.148
72 | RRIRFRPPRLPRPRPRPQCGPRP | -0.0775
73 | RRIRFRPPRLPRPRPRPQCVPRP | -0.276
74 | RRIRFRPPRLPRPRPRPQDAPRP | -0.0849
75 | RRIRFRPPRLPRPRPRPQEGPRP | -0.00638
